Data reported in publication PMC7166197 (Molecular cell, 2020).

Biological target: RNA polymerase β subunit of Escherichia coli (Escherichia coli, UniProt P0A8V2 1-1342)
Assay: cryo-EM structure

Sequence of RNA polymerase β subunit of Escherichia coli (P0A8V2 whole entry): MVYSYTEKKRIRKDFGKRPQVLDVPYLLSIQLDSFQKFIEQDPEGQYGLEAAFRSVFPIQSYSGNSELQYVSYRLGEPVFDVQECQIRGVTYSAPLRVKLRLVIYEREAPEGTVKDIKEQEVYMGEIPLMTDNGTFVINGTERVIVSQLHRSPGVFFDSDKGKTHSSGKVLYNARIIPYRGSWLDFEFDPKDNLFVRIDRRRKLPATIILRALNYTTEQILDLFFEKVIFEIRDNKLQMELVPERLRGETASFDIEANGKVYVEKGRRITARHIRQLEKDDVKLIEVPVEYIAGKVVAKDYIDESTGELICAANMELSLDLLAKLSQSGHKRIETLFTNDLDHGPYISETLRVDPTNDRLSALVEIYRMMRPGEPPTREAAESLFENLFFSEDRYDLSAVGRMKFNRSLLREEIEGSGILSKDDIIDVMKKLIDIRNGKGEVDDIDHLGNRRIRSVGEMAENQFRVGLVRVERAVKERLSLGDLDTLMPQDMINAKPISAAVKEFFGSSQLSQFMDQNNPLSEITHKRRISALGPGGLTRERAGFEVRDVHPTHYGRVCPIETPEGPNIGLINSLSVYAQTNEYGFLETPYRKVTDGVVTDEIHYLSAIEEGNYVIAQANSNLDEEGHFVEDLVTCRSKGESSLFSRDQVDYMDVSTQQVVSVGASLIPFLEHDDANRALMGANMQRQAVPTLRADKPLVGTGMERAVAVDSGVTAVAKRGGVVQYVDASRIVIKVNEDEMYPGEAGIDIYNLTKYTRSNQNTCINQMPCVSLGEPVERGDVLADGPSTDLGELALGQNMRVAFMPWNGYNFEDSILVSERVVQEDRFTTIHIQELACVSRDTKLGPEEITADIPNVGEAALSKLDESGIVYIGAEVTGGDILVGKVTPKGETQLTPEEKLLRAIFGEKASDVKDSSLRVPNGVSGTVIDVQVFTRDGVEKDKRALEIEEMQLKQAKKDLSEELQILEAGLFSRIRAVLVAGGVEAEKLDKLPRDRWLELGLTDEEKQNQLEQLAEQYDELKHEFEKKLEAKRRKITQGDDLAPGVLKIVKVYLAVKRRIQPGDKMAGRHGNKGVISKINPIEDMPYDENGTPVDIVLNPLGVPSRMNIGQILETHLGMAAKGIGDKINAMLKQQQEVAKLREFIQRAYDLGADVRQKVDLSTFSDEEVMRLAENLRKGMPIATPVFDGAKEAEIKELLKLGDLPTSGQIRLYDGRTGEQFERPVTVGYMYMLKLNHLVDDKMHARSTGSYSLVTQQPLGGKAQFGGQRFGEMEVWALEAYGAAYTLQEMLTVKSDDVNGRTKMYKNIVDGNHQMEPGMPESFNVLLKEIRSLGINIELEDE

B1: TraR (natural protein, Escherichia coli)
chain: SDEADEAYSVTEQLTMTGINRIRQKINAHGIPVYLCEACGNPIPEARRKIFPGVTLCVECQAYQERQRKHYA
Question: Does B1 bind?
Answer: Result: binds
